These results are taken from publication PMC6494836, “Mechanism-based tuning of insect 3,4-dihydroxyphenylacetaldehyde synthase for synthetic bioproduction of benzylisoquinoline alkaloids” (Nature Communications, 2019).

For this data set, the system named is N[C@@H](Cc1ccc(O)c(O)c1)C(=O)O. Put plainly: fluorometric H2O2 production assay (peroxidase-coupled). Format: biochemical, Bombyx mori. Conditions: O2 co-substrate; PBS; PLP cofactor; aldehyde synthase (H2O2-producing) activity; parentheses are 95% confidence interval. An excerpt: fluorometric H2O2 production assay (peroxidase-coupled) on B. mori DHPAAS

For the substance “B. mori DHPAAS (Bombyx mori; F79Y/N192H/Y80F)”, the Km is recorded as 27.6 (17.1–42.8) µM and the kcat is listed as 0.97 (0.87–1.09) min^−1.
Regarding B. mori DHPAAS (Bombyx mori), the Km is given as 41.7 (36.6–47.3) µM and the kcat is on record as 6.51 (6.27–6.76) min^−1.
On the same counts, the results for B. mori DHPAAS (Bombyx mori; F79Y/Y80F) are 62.3 (49.5–78.5) µM and 4.65 (4.30–5.03) min^−1.
Turning to B. mori DHPAAS (Bombyx mori; N192H), the Km was 36.5 (32.8–40.5) µM and the kcat is recorded as 1.40 (1.35–1.44) min^−1.
